{"source": "IntAct's records for PubMed 20142513", "parents": {"B1": {"name": "Protein ERGIC-53 (Homo sapiens), P49257 (parent)", "chain": "MAGSRQRGLRARVRPLFCALLLSLGRFVRGDGVGGDPAVALPHRRFEYKYSFKGPHLVQSDGTVPFWAHAGNAIPSSDQIRVAPSLKSQRGSVWTKTKAAFENWEVEVTFRVTGRGRIGADGLAIWYAENQGLEGPVFGSADLWNGVGIFFDSFDNDGKKNNPAIVIIGNNGQIHYDHQNDGASQALASCQRDFRNKPYPVRAKITYYQNTLTVMINNGFTPDKNDYEFCAKVENMIIPAQGHFGISAATGGLADDHDVLSFLTFQLTEPGKEPPTPDKEISEKEKEKYQEEFEHFQQELDKKKEEFQKGHPDLQGQPAEEIFESVGDRELRQVFEGQNRIHLEIKQLNRQLDMILDEQRRYVSSLTEEISKRGAGMPGQHGQITQQELDTVVKTQHEILRQVNEMKNSMSETVRLVSGMQHPGSAGGVYETTQHFIDIKEHLHIVKRDIDNLVQRNMPSNEKPKCPELPPFPSCLSTVHFIIFVVVQTVLFIGYIMYRSQQEAAAKKFF", "partner": "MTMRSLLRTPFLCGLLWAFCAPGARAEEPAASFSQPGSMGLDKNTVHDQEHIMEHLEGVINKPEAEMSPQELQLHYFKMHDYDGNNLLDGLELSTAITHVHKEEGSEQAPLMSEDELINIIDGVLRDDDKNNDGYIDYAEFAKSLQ"}, "B2": {"name": "Multiple coagulation factor deficiency protein 2 (Homo sapiens), Q8NI22 (parent)", "chain": "B1 partner", "partner": "B1 chain"}}, "data": [{"variants_of": "B1", "details": "with mcfd2_human MCFD2, Q8NI22", "values": [{"variant": "R45A", "effect of a mutation on the interaction": "decreasing interaction"}]}, {"variants_of": "B2", "details": "with lman1_human LMAN1, P49257", "values": [{"variant": "D89A", "effect of a mutation on the interaction": "disrupting interaction"}]}, {"variants_of": "B2", "details": "with lman1_human LMAN1, P49257", "remark": "another data set of the same source", "values": [{"variant": "D122V", "effect of a mutation on the interaction": "disrupting interaction"}]}, {"variants_of": "B2", "details": "with lman1_human LMAN1, P49257", "remark": "another data set of the same source", "values": [{"variant": "D122V", "effect of a mutation on the interaction": "decreasing interaction"}]}]}
